The results in this text go back to a protein production outcome set (Wang et al. 2014).

This series can be described thus: label from the status in PepcDB records.

On to “MTENTKISLIVQEADYNDVGRGYAKINNDVMAKLGVESGDFIKITGKRMGAAKVMRSSVSGSGGIAIDGDIRRSAGAGIGDTVTVEKVVPKTAAKITLQPISQSIRLDSRALEQTIQSKFAGRPITKGQIMTFGFQTKSEDPFFSGWGGFSNYNTEYVDFAVSDVSPGDVAIIGSETTVNYKDSVYKGEDAPKGKSAGNIHYEDIGGLGRELSLVREMIEYPLRHPEVFEKLGIEPPKGVLLYGPPGTGKTLIARAVANEAGAYFDTISGPEIISKYYGDSEEKLREIFEKAEENAPSIIFIDEIDSIAPKREESKGEVERRVVAQLLSLMDGLKSRGKVIVIAATNLPDSIDPALRRGGRFDREIEIGVPDKDGRREILQIHARNVPLSENVKLEKYANTTHGFVGADLALMVKEAAMHALRRAFPGMNPDEEISAEKLENLKVTAEDFESALKMVQPSAMREVLVEVPDIHWADVGGLDSVKEELQQAVEWPLKYREVYKQFATKSPKGFLMFGPPGTGKTLLAKAVANESECNFISVKGPELMSKWVGESEKGIREIFRKARLASPSIIFFDEIDSIVPRRGSYEGSSHVTESVVSQFLTELDGLEELKNVVVIGATNRPDMIDPALLRPGRLEQHIFVPPPDREGRKQILDVYIKDISSMLAEDVNLDELVDKTEGFVGADIEALVREAKMVAIREFVKVMAGHDAAEITLAVSSVKVFGRHFDAALKRVRPSLDKEGRRSAERGSWQYRFNEEERKTLEKGISVVETAEYKDAGSTPELRELDELLMAHQKDFSRIKEIIKTADA”, for which the protein production entry is “failed”.
For “MTEQFVIIILLIALGYFLKRMNYLKATDSQVLSTLVLNVTLPSLVIVNLNSAKLDVSFSILPIMMIIYGIVAKIIVIWFFRKYDNHMRGSVGMMTGSMNIGLFAYPLVEAIWPSKGMIYFGMVDIGGAIIMFGITYFVGSYFSEGSDQFNFKFLGKKLVQSVPLVTYMIMFGLNMSHIHIWQPAIDFFSVLSKANMPLSMILLGVMLNFSIEREYLPVTIKYLCLHYGLGMLAGTLVHFLLPVSDDMIKTTLLITWLLPVGVAIIPYSIQFKYKTLPFVGMVTNLTIIISIIILYIYQAVFV”, the protein production entry was “failed”.
Consider “MTESESASGMDGVVLGGTASGVGKTVATLAVARALADAGHDVQPAKAGPDFIDPSHHEPVVGTPSRSLDPWLSGTDGMRRTYHQGDGDVCVVEGMMGLYDGSVASTARVASELDLPVVLVVDASAGMQSVAATALGFQAYAAEASVDVDVAGVLAQRAHGGRHADGIRDALPDSLTYFGRVPPRDDLDVPDRHLGLHMGSEAAIDDDAVDAAAAHVAAKRIADVARTPPRPPAHDPAPDTGQTVAVADDAAFCFAYPATRERLRERADVVTFSPVAGDDLPACDGVYLPGGYPELHTDALADAPALDTLGARAADGLPVLGECGGLMALAESLTTTDGDTAEMAGVLPADVRMQDRYQALDHVELRATGDTLTAGSGATLRGHEFHYSAATVASDARFAFAVERGDGIDGDHDGLTEYRTLGTYAHVHPESTAFDAFLDAL”, for which the protein production result is on record as “failed”.
For “MTESIVCHKCQEAITKRMITALGKTWHPEHFLCHHCDEQILDATFNVQSGEPVCNKCFVERYTYTCAGCKKPILEKTICAMGESWHEDCFCCGGACKKPLANQTFYERDGKPYCKKDYEDLFAARCAKCEKPITDSAVLAMNVKWHRDCFRCNKCENPITSQTFTIDGDKPVCPACNC”, the protein production result is “failed”.
In the case of “MTETESKWDEKLKRFFKDYYWNEILQLANEYPDQRSLAVDFTDIEKFDRDLSREFLEHPGELISAAEAALKEIDLPVEKNLEQAHVRVIKIPNRIPIRELRSKHLTRFVAIEGMIRKATEVRPRITKAAFQCLRCGHLTIVEQNSFKFEEPFAGCEEETCGKKGPFKVSIEDSTFIDAQKLQIQESPENLKGGSQPQSLEVDSEDDLTGNVTPGDRVIINGVLKSRQRTLKDGKSTFYDLILEANSIERLDKDYDELEISAEEEEQILELSRDPAIYEKIISSIAPSIYGYEDIKEALALQLFSGVVKNLPDGSRTRGDIHMMLVGDPGIAKSQLLRYVVKLSPRGVFASGRSASASGLTAAAVKDDMNDGRWTIEGGALVMADMGVAAVDEMDKMRTEDKSALHEAMEQQTISIAKAGIIATLKSRCALLGAANPKYGRFDRYEGLADQINMPPALLSRFDLIFVLLDTPNHSLDSRIANHILQSHYAGELSEQRQKLPGSTISEEFVDAEMEIIEPVIAPEFMRKYIAFARKNVYPVMEEDTRHHLINFYTDLRRSGEGKNTPVPVTARQLEALVRLSEASARVRLSNIVTLEDAKRTIRIVMNCLKNVGVDPETGALDADILASGTSMSQRNKIKLLKDIIKKVSDRHPGSKAPLEEVYAEAESEHGIDRGHAEEYIKKMKQRGDILSPDQTHIRLIN”, the protein production entry is “failed”.
For “MTETFNPDLDLKISRIIKAPRRLVWNAWTDKTSLEQWWVPHPGQCRVDKMELHPGGAFETRYSEDGREFGQHVSGCFLAVDHEQRLIFTDALTAGFRPSAQPFLTAVMTFRDHPDGMEYEAYAMHNNLADRDRHAEMGFFDGWNTVAEQLAQLVEKQAAH”, the protein production entry is recorded as “failed”.
Regarding “MTETIKCIGCGVEIQTEDKNEVGYAPASSLEKEQVICQRCFRLKHYNEIQDVSLTDDDFLRILNGIGKSDALVVKIVDIFDFNGSWLPGLHRFVGNNKVLLVGNKADLIPKSVKHDKVKHWMRYSAKQLGLKPEDVFLISAAKGQGIAELADAIEYYRGGKDVYVVGCTNVGKSTFINRMIKEFSDETENVITTSHFPGTTLDLIDIPLDEESSLYDTPGIINHHQMAHYVGKQSLKLITPTKEIKPMVFQLNEEQTLFFSGLARFDYVSGGRRAFTCHFSNRLTIHRTKLEKADELYKNHAGDLLSPPTPEELENMPELVKYEFNIREPKTDVVFSGLGWVTVNEPGAKIVAHVPKGVSVSLRKSLI”, the protein production result was “not failed”.
On to “MTETIPVFDGHNDFLLRLLRNPANRETIWLKGDGTGHLDLPRMKEGGFAGGFFAIYVPSPQAHDAAHFEAMMDAPPFELPLPPMIRAEQAQPVALAMAGHLLWMERAARGRFKVCRTAAEVRSCHADGIVSGIMHMEGAEAIGADLDALHLFHSLGLRSLGPVWSRPTVFGHGVPFRFPGSPDTGEGLTEAGRRLVAECNRLKIMLDLSHLNEKGFDDVARLSDAPLVATHSNAHAVTPSTRNLTDRQLAMIRESRGMVGLNFATSFLREDGRRSAEMGWEPVLRHLDHLIDRLGEDHVGMGSDFDGATIPQGIADVTGLPALQAAMRAHGYDEPLMRKLCHENWYGLLERSWG”, for which the protein production entry is reported as “not failed”.
As for “MTETNHDQAEYWGKSASGMKWLTFEEQIAASFAPVVDLLLERAALKPGQRVLDIGCGLGDVTLAAAQAVGPGGHVLGVDISAPFLERAGLRASGMGNVGFALADAQSEPFAPAERDAVLSRFGMMFFSDTVAAFANIARALKPGGRMTFAAWGPLAGNPWFYLPHRAATDRLGQMPKVDRNAPGPLAFHDIDRVTGLMAEAGLADIEAQAVDLNLTPPGGLEGAAALCTRLGPAARVLAHFNGSEADEAAIRDAVSAALEPYVEGGEVLMPATINLFQARRAGTA”, the protein production result is given as “failed”.
With “MTETYNKEQQEAMKKMMSFQMLYMLIMLGSLFIVITPSSRDAVGNLLNVVLIPTIGFGYRYPLLSIILTGVIIGVILSIPRYFFTDWVKMGKMQNTMKAFNEAIRAAYRERDMKKINKLNSMRMQMSMDQYQLSMNTMKPLLVISVLTILFYAWLFVFVGKIPYNYIAFPWDFNINISTAHFWIMPYWIFMYFLTEIVVSYFITMIMKYIDFTLRLRRISRETSS” the entry was “failed”.
With “MTEVRPGAVASASLWERDAEIAALVEAVDALRADSPSSGSGSLLVFSGEAGIGKTALLGETRRIAESRGCTVWSARGGETVTSVPFNVVRQLLQPALVALMPDEAREYLGDWYDIAGPALGITEPGDRQADPQGVCDGLVAAVRRLARREWPLVLLIDDAHWADQETLHWLAAFAERLHDLSVLVVVARRPGEATEESTRHLDVIAAAAGPVATLSALTPEATAGLTRATVGVHADAPFCREVWAVTGGNPYETVELLAKVQDSELEPSESSAAELRALNRSARGRGLVARLEGLGIDATRFAWAAAILGTGISLDLAAQLAGMQREEALHCADLLGAARILTEPAPVNGRQPDGDLEFVHPLIASAVYNSIPDALRTAMHGVAAQVVTDSGLGAAAASRHLLEVHPDDDAELVDQMREAAREHLAVGAPDAARRCLERALLEPPLSDVHARVLYELGCATLLTSPATTIDYLQAALAMPGLDGDVRVDAVFRLSQALLHNNQVEEAVRTVDAEAARLEPGPARMRLQAVHYMWECVHAGEDISPTSVRALAELAKKCTGKDNSERALLILRGFDAMTRGENAEEVAELCDRALVNGRLAPGLGWTDTEWGIELLMMLASAYAYADRLDRAEALYNEALRAYEGAGWSGGHLALAHSYVGLGHRRRGRLTEAEKYLRESLRIAERVGRGLPLYWSATCGLVDTLLARGHVEEAAEIAERYGFGPPYPTTIVLPDTRSVRGRLLLALGRTEEGVNELEAAEKAATARGHHNTVLAPWALDLARALAVDDPRRAAELAATARRQAERFGTDTAIGEALRCAAALETGQRAASLYKQAVTYLEASPCSYEHAAARVEYGIATRSATELTRGLTLARSCGADGLVAQAQEALDNGPGLR”, the protein production result is “failed”.
Take “MTEVSFFLSDNNWYFVVVINNKDFCMKCHRLNEVMELLHPVWEENSDLNLVQLLQKLADEAGFKGQLSDLTDDILIYHLKMRGSAPTEVIPGLKKDYEEDFKTAILRARGVIKD”: the protein production entry was “failed”.
Take “MTFALGQRWISDTESDLGLGTVVAMDARTVTLMFAASEENRVYARNDAPVTRVTFNVGDVIDCQEGWSLKVEEVLEDEGLYTYFGTREDTQETAVVLREIFLSNQIRFNKPQDKLYAGQIDRMDNFVLRY”: the protein production result is “failed”.
For the sequence “MTFANTASINHYWRTHPALFTAMLLVVVLITSYFIDVFSGSAIAVLLILQLAVVVVALQCSANYAYFVAVFGAVSFNFLFTAPRYSLQMLNVEDIVNLTVFLLAALTSSKLAKHYRRQQDALEQAQLRNSILLSVSHDLRTPLATIIGTLTTLKEYQPKLSPAQTEELIDSAAAESHRLHQYIENLLQANKLQHGALKFSLDEANIREVLQRTIARFQTEQPRIQIQSEPELPSLMICSSLIEQAIFNVLDNALHYSPATQPVTVSLYRHQHMLRIDIQDQGKGIAPSQTGAIFELFYRQHPTTDGGAGLGLPVAKGIITAHNGTISAEKVAHGSLIRIALPITKESA”, the protein production result is given as “failed”.
With “MTFCYVNAYQGGYILYNKGTKSKEVAKMSTKKVYSFLSQAFIFSAIMLISNIIATHLPIPMPSSVIGLVILFSLLCLKVIKLEQVESLGTALTGIIGFLFVPSGISVINSLGVMGQYFVQILTVIVVATVILLAVTGLFAQFILGKDEKETEDTKELKVVNKGRKHGKVA”, the protein production entry is listed as “failed”.
In the case of “MTFGEKLLNAASTRGRLCVGIDPHESLLTSWGLPVNVDGLAEFSRACVEAFADTVALVKPQVAFYERFGSAGFAILEETIQTLRERGCLVVSDAKRGDIGSTMAGYASAWLDPASPLSSDAVTVSPYLGFHSLDPVFELAEQHGRGVFVLAATSNPEARELQDQQNADGVSISQQIVDQAAALNAPYMAQGKAGNIGVVIGATLSKPPRLSTLGGAILMPGVGAQGGTASDVDEIAGDMAHLAFPNVSRSILATGPDIAEMKNSVAKNAADFPGFPRS”, the protein production result was “failed”.
As to “MTFLQRWQGLADNKICAFAWFVIRRFSEERVPQAAASMTFTTLLALVPVLTVMVAVASIFPVFDRWSDSFVSFVNQTIVPQGADMVFDYIDAFRDQANRLTAIGSVMLVVTSLMLIRTIDNAFNRIWRVNTQRPWMMQFLVYWALLTFGPLSLGVGISFMVGSVQDSVLSSGAQQWADALKTAARLAFMTLLLWGLYRFVPNRFVPARQAFVGALITAFCLETARFLFTWYMGNFDGYRSIYGAFAAVPFFLLWLNLLWTLVLGGAVLTSSLSYWQGEAFRRGFDSRGRFDDVLKILLLLDAAQKEGRTLSVQEFRRHINMGYDELGELLEKLARYGYIYSGRQGWVLKTGADSIELSELFKLFVYRPLPVERDHVNQAVDAVMTPCLQTLNMTLAEFDAQAKKQQQS”, the protein production result is given as “failed”.
